Results taken from publication PMC4769167 (eLife, 2016).

B1: D417C/A404L ClC-ec1 (cysteine-less background) (natural protein, E. coli)
chain: MKTDTPSLETPQAARLRRRQLIRQLLERDKTPLAILFMAAVVGTLVGLAAVAFDKGVAWLQNQRMGALVHTADNYPLLLTVAFLASAVLAMFGYFLVRKYAPEAGGSGIPEIEGALEDQRPVRWWRVLPVKFFGGLGTLGGGMVLGREGPTVQIGGNIGRMVLDIFRLKGDEARHTLLATGAAAGLAAAFNAPLAGILFIIEEMRPQFRYTLISIKAVFIGVIMSTIMYRIFNHEVALIDVGKLSDAPLNTLWLYLILGIIFGIFGPIFNKWVLGMQDLLHRVHGGNITKWVLMGGAIGGLAGLLGFVAPATSGGGFNLIPIATAGNFSMGMLVFIFVARVITTLLSFSSGAPGGIFAPMLALGTVLGTAFGMVAVELFPQYHLEAGTFAIAGMGALLAASIRLPLTGIILVLEMTCNYQLILPMIITGLGATLLAQFTGGKPLYSAILARTLAKQEAEQLARSK
notes: ClC-ec1; D417C with A404L in the cysteine-less background C85A/C302A/C347S; source: expressed and purified as in Accardi and Miller, 2004, final step Superdex 200 size exclusion
B2: Y419C ClC-ec1 (WT ClC-ec1 background) (natural protein, E. coli)
chain: MKTDTPSLETPQAARLRRRQLIRQLLERDKTPLAILFMAAVVGTLVGLAAVAFDKGVAWLQNQRMGALVHTADNYPLLLTVAFLCSAVLAMFGYFLVRKYAPEAGGSGIPEIEGALEDQRPVRWWRVLPVKFFGGLGTLGGGMVLGREGPTVQIGGNIGRMVLDIFRLKGDEARHTLLATGAAAGLAAAFNAPLAGILFIIEEMRPQFRYTLISIKAVFIGVIMSTIMYRIFNHEVALIDVGKLSDAPLNTLWLYLILGIIFGIFGPIFNKWVLGMQDLLHRVHGGNITKWVLMGGAIGGLCGLLGFVAPATSGGGFNLIPIATAGNFSMGMLVFIFVARVITTLLCFSSGAPGGIFAPMLALGTVLGTAFGMVAVELFPQYHLEAGTFAIAGMGALLAASIRAPLTGIILVLEMTDNCQLILPMIITGLGATLLAQFTGGKPLYSAILARTLAKQEAEQLARSK
notes: ClC-ec1, prokaryotic CLC Cl-/H+ exchange transporter, homodimer; Y419C in the WT (native cysteines kept) background; source: expressed and purified as in Accardi and Miller, 2004, final step Superdex 200 size exclusion
B3: D417C/L361A ClC-ec1 (cysteine-less background) (natural protein, E. coli)
chain: MKTDTPSLETPQAARLRRRQLIRQLLERDKTPLAILFMAAVVGTLVGLAAVAFDKGVAWLQNQRMGALVHTADNYPLLLTVAFLASAVLAMFGYFLVRKYAPEAGGSGIPEIEGALEDQRPVRWWRVLPVKFFGGLGTLGGGMVLGREGPTVQIGGNIGRMVLDIFRLKGDEARHTLLATGAAAGLAAAFNAPLAGILFIIEEMRPQFRYTLISIKAVFIGVIMSTIMYRIFNHEVALIDVGKLSDAPLNTLWLYLILGIIFGIFGPIFNKWVLGMQDLLHRVHGGNITKWVLMGGAIGGLAGLLGFVAPATSGGGFNLIPIATAGNFSMGMLVFIFVARVITTLLSFSSGAPGGIFAPMAALGTVLGTAFGMVAVELFPQYHLEAGTFAIAGMGALLAASIRAPLTGIILVLEMTCNYQLILPMIITGLGATLLAQFTGGKPLYSAILARTLAKQEAEQLARSK
notes: ClC-ec1; D417C with the Helix-N mutation L361A in the cysteine-less background C85A/C302A/C347S; also called L361A (Helix N); source: expressed and purified as in Accardi and Miller, 2004, final step Superdex 200 size exclusion
B4: D417C/F357A ClC-ec1 (cysteine-less background) (natural protein, E. coli)
chain: MKTDTPSLETPQAARLRRRQLIRQLLERDKTPLAILFMAAVVGTLVGLAAVAFDKGVAWLQNQRMGALVHTADNYPLLLTVAFLASAVLAMFGYFLVRKYAPEAGGSGIPEIEGALEDQRPVRWWRVLPVKFFGGLGTLGGGMVLGREGPTVQIGGNIGRMVLDIFRLKGDEARHTLLATGAAAGLAAAFNAPLAGILFIIEEMRPQFRYTLISIKAVFIGVIMSTIMYRIFNHEVALIDVGKLSDAPLNTLWLYLILGIIFGIFGPIFNKWVLGMQDLLHRVHGGNITKWVLMGGAIGGLAGLLGFVAPATSGGGFNLIPIATAGNFSMGMLVFIFVARVITTLLSFSSGAPGGIAAPMLALGTVLGTAFGMVAVELFPQYHLEAGTFAIAGMGALLAASIRAPLTGIILVLEMTCNYQLILPMIITGLGATLLAQFTGGKPLYSAILARTLAKQEAEQLARSK
notes: ClC-ec1; D417C with the Helix-N mutation F357A in the cysteine-less background C85A/C302A/C347S; also called F357A (Helix N); source: expressed and purified as in Accardi and Miller, 2004, final step Superdex 200 size exclusion
B5: D417C/E148A ClC-ec1 (cysteine-less background) (natural protein, E. coli)
chain: MKTDTPSLETPQAARLRRRQLIRQLLERDKTPLAILFMAAVVGTLVGLAAVAFDKGVAWLQNQRMGALVHTADNYPLLLTVAFLASAVLAMFGYFLVRKYAPEAGGSGIPEIEGALEDQRPVRWWRVLPVKFFGGLGTLGGGMVLGRAGPTVQIGGNIGRMVLDIFRLKGDEARHTLLATGAAAGLAAAFNAPLAGILFIIEEMRPQFRYTLISIKAVFIGVIMSTIMYRIFNHEVALIDVGKLSDAPLNTLWLYLILGIIFGIFGPIFNKWVLGMQDLLHRVHGGNITKWVLMGGAIGGLAGLLGFVAPATSGGGFNLIPIATAGNFSMGMLVFIFVARVITTLLSFSSGAPGGIFAPMLALGTVLGTAFGMVAVELFPQYHLEAGTFAIAGMGALLAASIRAPLTGIILVLEMTCNYQLILPMIITGLGATLLAQFTGGKPLYSAILARTLAKQEAEQLARSK
notes: ClC-ec1; D417C with E148A in the cysteine-less background C85A/C302A/C347S; also called D417C in the E148A mutant background; source: expressed and purified as in Accardi and Miller, 2004, final step Superdex 200 size exclusion
B6: D417C ClC-ec1 (cysteine-less C85A/C302A/C347S background, called the "WT background") (natural protein, E. coli)
chain: MKTDTPSLETPQAARLRRRQLIRQLLERDKTPLAILFMAAVVGTLVGLAAVAFDKGVAWLQNQRMGALVHTADNYPLLLTVAFLASAVLAMFGYFLVRKYAPEAGGSGIPEIEGALEDQRPVRWWRVLPVKFFGGLGTLGGGMVLGREGPTVQIGGNIGRMVLDIFRLKGDEARHTLLATGAAAGLAAAFNAPLAGILFIIEEMRPQFRYTLISIKAVFIGVIMSTIMYRIFNHEVALIDVGKLSDAPLNTLWLYLILGIIFGIFGPIFNKWVLGMQDLLHRVHGGNITKWVLMGGAIGGLAGLLGFVAPATSGGGFNLIPIATAGNFSMGMLVFIFVARVITTLLSFSSGAPGGIFAPMLALGTVLGTAFGMVAVELFPQYHLEAGTFAIAGMGALLAASIRAPLTGIILVLEMTCNYQLILPMIITGLGATLLAQFTGGKPLYSAILARTLAKQEAEQLARSK
notes: ClC-ec1, prokaryotic CLC Cl-/H+ exchange transporter, homodimer; D417C in the cysteine-less background C85A/C302A/C347S; E. coli is named only in the keywords; also called D417C/WT; source: expressed and purified as in Accardi and Miller, 2004, final step Superdex 200 size exclusion

Biological target: the molecule itself
Test: cross-linking; inter-subunit disulfide between introduced cysteines, spontaneous (purified without reductant) or induced with copper-phenanthroline (CuP) for 1 h at room temperature, 0.2 mg/mL protein in Buffer A (150 mM NaCl, 10 mM HEPES pH 7.5, 5 mM DM); non-reducing SDS-PAGE, Coomassie, monomer and dimer bands quantified

| Protein | binding result |
| --- | --- |
| B1 | binds |
| B2 | binds |
| B3 | binds |
| B4 | binds |
| B5 | binds |

Biological target: the molecule itself
Test: SEC; Superdex 200 gel filtration, before and after treatment with CuP

| Protein | stoichiometry N |
| --- | --- |
| B6 | 2 |
